# Laboratory results from the Human Domainome abundance scans (Beltran et al. 2025).
# ± gives the uncertainty stated by the source.
# B1: Nucleosome-remodeling factor subunit BPTF, residues 2862 to 2918; numbered along this chain, Q12830 (parent)
# chain: TKKDTKLYCICKTPYDESKFYIGCDRCQNWYHGRCVGILQSEAELIDEYVCPQCQST
# Variants of: B1
# Assay: abundance fitness (aPCA) (normalised: wild type 0, dead -1); higher = more abundant; growth selection in yeast, the domain comes from the species named
# Details: Homo sapiens
row,Variant,abundance fitness
1,TKKDTKLYCICKTPYDEDKFYIGCDRCQNWYHGRCVGILQSEAELIDEYVCPQCQST,-0.031 ± 0.19
2,TKKDTKLYCICKTPYDEWKFYIGCDRCQNWYHGRCVGILQSEAELIDEYVCPQCQST,-0.746 ± 0.21
3,TKKDTKLYCICKTPYDEMKFYIGCDRCQNWYHGRCVGILQSEAELIDEYVCPQCQST,-0.284 ± 0.23
4,TKKDTKLYCICKTPYDENKFYIGCDRCQNWYHGRCVGILQSEAELIDEYVCPQCQST,-0.185 ± 0.14
5,TKKDTKLYCICKTPYDEYKFYIGCDRCQNWYHGRCVGILQSEAELIDEYVCPQCQST,-0.37 ± 0.13
6,TKKDTKLYCICKTPYDERKFYIGCDRCQNWYHGRCVGILQSEAELIDEYVCPQCQST,-0.24 ± 0.095
7,TKKDTKLYCICKTPYDECKFYIGCDRCQNWYHGRCVGILQSEAELIDEYVCPQCQST,-0.366 ± 0.1
8,TKKDTKLYCICKTPYDEFKFYIGCDRCQNWYHGRCVGILQSEAELIDEYVCPQCQST,-0.582 ± 0.14
9,TKKDTKLYCICKTPYWESKFYIGCDRCQNWYHGRCVGILQSEAELIDEYVCPQCQST,-0.778 ± 0.18
10,TKKDTKLYCICKTPYYESKFYIGCDRCQNWYHGRCVGILQSEAELIDEYVCPQCQST,-0.757 ± 0.13
11,TKKDTKLYCICKTPYDESQFYIGCDRCQNWYHGRCVGILQSEAELIDEYVCPQCQST,-0.097 ± 0.13
12,TKKDTKLYCICKTPYDESAFYIGCDRCQNWYHGRCVGILQSEAELIDEYVCPQCQST,-0.069 ± 0.096
13,TKKDTKLYCICKTPYDESLFYIGCDRCQNWYHGRCVGILQSEAELIDEYVCPQCQST,-0.059 ± 0.071
14,TKKDTKLYCICKTPYDESMFYIGCDRCQNWYHGRCVGILQSEAELIDEYVCPQCQST,-0.08 ± 0.098
15,TKKDTKLYCICKTPYDESSFYIGCDRCQNWYHGRCVGILQSEAELIDEYVCPQCQST,-0.186 ± 0.09
16,TKKDTKLYCICKTPYDESTFYIGCDRCQNWYHGRCVGILQSEAELIDEYVCPQCQST,-0.231 ± 0.1
17,TKKDTKLYCICKTPYDESRFYIGCDRCQNWYHGRCVGILQSEAELIDEYVCPQCQST,0.048 ± 0.1
18,TKKDTKLYCICKTPYDESWFYIGCDRCQNWYHGRCVGILQSEAELIDEYVCPQCQST,-0.668 ± 0.17
19,TKKDTKLYCICKTPYDESIFYIGCDRCQNWYHGRCVGILQSEAELIDEYVCPQCQST,-0.101 ± 0.089
20,TKKDTKLYCICKTPYDESGFYIGCDRCQNWYHGRCVGILQSEAELIDEYVCPQCQST,-0.244 ± 0.11
21,TKKDTKLYCICKTPYDESPFYIGCDRCQNWYHGRCVGILQSEAELIDEYVCPQCQST,-0.637 ± 0.15
22,TKKDTKLYCICKTPYDESEFYIGCDRCQNWYHGRCVGILQSEAELIDEYVCPQCQST,0.106 ± 0.12
23,TKKDTKLYCICKTPYDESYFYIGCDRCQNWYHGRCVGILQSEAELIDEYVCPQCQST,-0.286 ± 0.13
24,TKKDTKLYCICKTPYDESCFYIGCDRCQNWYHGRCVGILQSEAELIDEYVCPQCQST,-0.252 ± 0.13

row,Variant,abundance fitness
1,TKKDTKLYCICKTPYDESHFYIGCDRCQNWYHGRCVGILQSEAELIDEYVCPQCQST,0.007 ± 0.14
2,TKKDTKLYCICKTPYDESVFYIGCDRCQNWYHGRCVGILQSEAELIDEYVCPQCQST,-0.108 ± 0.087
3,TKKDTKLYCICKTPYDESFFYIGCDRCQNWYHGRCVGILQSEAELIDEYVCPQCQST,-0.351 ± 0.16
4,TKKDTKLYCICKTPYDESDFYIGCDRCQNWYHGRCVGILQSEAELIDEYVCPQCQST,0.044 ± 0.12
5,TKKDTKLYCICKTPYDESNFYIGCDRCQNWYHGRCVGILQSEAELIDEYVCPQCQST,0.082 ± 0.18
6,TKKDTKLYCICKTPYDESKFYAGCDRCQNWYHGRCVGILQSEAELIDEYVCPQCQST,-0.578 ± 0.1
7,TKKDTKLYCICKTPYDESKFHIGCDRCQNWYHGRCVGILQSEAELIDEYVCPQCQST,-0.188 ± 0.17
8,TKKDTKLYCICKTPYDESKFPIGCDRCQNWYHGRCVGILQSEAELIDEYVCPQCQST,-0.658 ± 0.14
9,TKKDTKLYCICKTPYDESKFFIGCDRCQNWYHGRCVGILQSEAELIDEYVCPQCQST,-0.161 ± 0.16
10,TKKDTKLYCICKTPYDESKFEIGCDRCQNWYHGRCVGILQSEAELIDEYVCPQCQST,-0.245 ± 0.14
11,TKKDTKLYCICKTPYDESKFKIGCDRCQNWYHGRCVGILQSEAELIDEYVCPQCQST,-0.196 ± 0.18
12,TKKDTKLYCICKTPYDESKFAIGCDRCQNWYHGRCVGILQSEAELIDEYVCPQCQST,0.006 ± 0.12
13,TKKDTKLYCICKTPYDESKFLIGCDRCQNWYHGRCVGILQSEAELIDEYVCPQCQST,-0.245 ± 0.088
14,TKKDTKLYCICKTPYDESKFNIGCDRCQNWYHGRCVGILQSEAELIDEYVCPQCQST,-0.134 ± 0.19
15,TKKDTKLYCICKTPYDESKFTIGCDRCQNWYHGRCVGILQSEAELIDEYVCPQCQST,-0.3 ± 0.13
16,TKKDTKLYCICKTPYDESKFIIGCDRCQNWYHGRCVGILQSEAELIDEYVCPQCQST,-0.237 ± 0.17
17,TKKDTKLYCICKTPYDESKFRIGCDRCQNWYHGRCVGILQSEAELIDEYVCPQCQST,-0.151 ± 0.084
18,TKKDTKLYCICKTPYDESKFVIGCDRCQNWYHGRCVGILQSEAELIDEYVCPQCQST,-0.19 ± 0.091
19,TKKDTKLYCICKTPYDESKFQIGCDRCQNWYHGRCVGILQSEAELIDEYVCPQCQST,-0.359 ± 0.12
20,TKKDTKLYCICKTPYDESKFWIGCDRCQNWYHGRCVGILQSEAELIDEYVCPQCQST,-0.08 ± 0.11
21,TKKDTKLYCICKTPYDESKFGIGCDRCQNWYHGRCVGILQSEAELIDEYVCPQCQST,-0.395 ± 0.12
22,TKKDTKLYCICKTPYDESKFMIGCDRCQNWYHGRCVGILQSEAELIDEYVCPQCQST,0.118 ± 0.11
23,TKKDTKLYCICKTPYDESKFCIGCDRCQNWYHGRCVGILQSEAELIDEYVCPQCQST,-0.369 ± 0.17
